This assay has as its target Recombinant active autotaxin-β (ATXβ), Q13822. Nature of the assay: cell adhesion assay; plates coated with recombinant ATXβ; cells in HEPES-buffered Tyrode solution with 2 mM Mn2+, rested 1 h at 37° C, seeded 1 h, attached cells counted; cells preincubated 1 h with blocking antibodies (10 µg/mL) or peptides (50 µg/mL). To be noted: remark: other sources report otherwise.

B1: Integrin αvβ3, P06756 31-1048; P05106 27-788 (receptor)
chain 1: FNLDVDSPAEYSGPEGSYFGFAVDFFVPSASSRMFLLVGAPKANTTQPGIVEGGQVLKCDWSSTRRCQPIEFDATGNRDYAKDDPLEFKSHQWFGASVRSKQDKILACAPLYHWRTEMKQEREPVGTCFLQDGTKTVEYAPCRSQDIDADGQGFCQGGFSIDFTKADRVLLGGPGSFYWQGQLISDQVAEIVSKYDPNVYSIKYNNQLATRTAQAIFDDSYLGYSVAVGDFNGDGIDDFVSGVPRAARTLGMVYIYDGKNMSSLYNFTGEQMAAYFGFSVAATDINGDDYADVFIGAPLFMDRGSDGKLQEVGQVSVSLQRASGDFQTTKLNGFEVFARFGSAIAPLGDLDQDGFNDIAIAAPYGGEDKKGIVYIFNGRSTGLNAVPSQILEGQWAARSMPPSFGYSMKGATDIDKNGYPDLIVGAFGVDRAILYRARPVITVNAGLEVYPSILNQDNKTCSLPGTALKVSCFNVRFCLKADGKGVLPRKLNFQVELLLDKLKQKGAIRRALFLYSRSPSHSKNMTISRGGLMQCEELIAYLRDESEFRDKLTPITIFMEYRLDYRTAADTTGLQPILNQFTPANISRQAHILLDCGEDNVCKPKLEVSVDSDQKKIYIGDDNPLTLIVKAQNQGEGAYEAELIVSIPLQADFIGVVRNNEALARLSCAFKTENQTRQVVCDLGNPMKAGTQLLAGLRFSVHQQSEMDTSVKFDLQIQSSNLFDKVSPVVSHKVDLAVLAAVEIRGVSSPDHVFLPIPNWEHKENPETEEDVGPVVQHIYELRNNGPSSFSKAMLHLQWPYKYNNNTLLYILHYDIDGPMNCTSDMEINPLRIKISSLQTTEKNDTVAGQGERDHLITKRDLALSEGDIHTLGCGVAQCLKIVCQVGRLDRGKSAILYVKSLLWTETFMNKENQNHSYSLKSSASFNVIEFPYKNLPIEDITNSTLVTTNVTWGIQPAPMPVPVWVIILAVLAGLLLLAVLVFVMYRMGFFKRVRPPQEEQEREQLQPHENGEGNSET
chain 2: GPNICTTRGVSSCQQCLAVSPMCAWCSDEALPLGSPRCDLKENLLKDNCAPESIEFPVSEARVLEDRPLSDKGSGDSSQVTQVSPQRIALRLRPDDSKNFSIQVRQVEDYPVDIYYLMDLSYSMKDDLWSIQNLGTKLATQMRKLTSNLRIGFGAFVDKPVSPYMYISPPEALENPCYDMKTTCLPMFGYKHVLTLTDQVTRFNEEVKKQSVSRNRDAPEGGFDAIMQATVCDEKIGWRNDASHLLVFTTDAKTHIALDGRLAGIVQPNDGQCHVGSDNHYSASTTMDYPSLGLMTEKLSQKNINLIFAVTENVVNLYQNYSELIPGTTVGVLSMDSSNVLQLIVDAYGKIRSKVELEVRDLPEELSLSFNATCLNNEVIPGLKSCMGLKIGDTVSFSIEAKVRGCPQEKEKSFTIKPVGFKDSLIVQVTFDCDCACQAQAEPNSHRCNNGNGTFECGVCRCGPGWLGSQCECSEEDYRPSQQDECSPREGQPVCSQRGECLCGQCVCHSSDFGKITGKYCECDDFSCVRYKGEMCSGHGQCSCGDCLCDSDWTGYYCNCTTRTDTCMSSNGLLCSGRGKCECGSCVCIQPGSYGDTCEKCPTCPDACTFKKECVECKKFDRGALHDENTCNRYCRDEIESVKELKDTGKDAVNCTYKNEDDCVVRFQYYEDSSGKSILYVVEEPECPKGPDILVVLLSVMGAILLIGLAALLIWKLLITIHDRKEFAKFEEERARAKWDTANNPLYKEATSTFTNITYRGT
As to B1, the percent inhibition of DU145 cell adhesion on ATXβ by LM609 (anti-αvβ3) stood at 60% and the percent inhibition of KHOS cell adhesion on ATXβ by LM609 (anti-αvβ3) was determined as 15%.
